Experimental data reported in patent US20140105900A1 (Amgen, published 2014).
One block for each binder: values may come before it.

Tests used:
[1] = target: T1, recombinant human IL-21 receptor (human, UniProt Q9HBE5 20-232); assay: Biacore, recombinant human IL-21R
T1 construct: Used in Biacore and KinExA ('recombinant IL-21R', column 'hu'); also called recombinant IL-21R; hu IL-21R

[2] = target: T2, recombinant cynomolgus IL-21 receptor (cynomolgus monkey, UniProt G7Q0S8 41-253); assay: Biacore, recombinant cyno IL-21R
T2 construct: construct not described; also called cyno IL-21R

[3] = target: T1, recombinant human IL-21 receptor; assay: KinExA, recombinant human IL-21R
[4] = target: cynomolgus IL-21 receptor on cells (cynomolgus monkey, UniProt G7Q0S8 41-559); assay: cell-based or functional assay
[5] = target: T3, human IL-21 receptor on cells (human, UniProt Q9HBE5 20-538); assay: cell-based or functional assay
T3 sequence (Q9HBE5 20-538 limits assumed): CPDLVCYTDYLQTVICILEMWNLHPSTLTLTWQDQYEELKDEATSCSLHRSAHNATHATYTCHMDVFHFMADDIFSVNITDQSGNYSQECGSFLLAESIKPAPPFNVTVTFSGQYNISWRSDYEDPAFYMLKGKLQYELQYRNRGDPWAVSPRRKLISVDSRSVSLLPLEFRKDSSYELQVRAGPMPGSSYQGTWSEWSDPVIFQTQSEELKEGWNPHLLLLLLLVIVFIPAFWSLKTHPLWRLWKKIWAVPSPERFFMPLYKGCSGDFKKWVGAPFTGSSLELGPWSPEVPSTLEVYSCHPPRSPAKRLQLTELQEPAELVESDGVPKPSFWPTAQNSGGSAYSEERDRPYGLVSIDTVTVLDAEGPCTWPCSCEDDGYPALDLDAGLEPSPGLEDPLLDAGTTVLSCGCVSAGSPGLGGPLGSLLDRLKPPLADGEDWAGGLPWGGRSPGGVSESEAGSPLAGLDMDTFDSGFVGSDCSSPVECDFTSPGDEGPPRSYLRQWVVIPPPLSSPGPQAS

[6] = target: T3, human IL-21 receptor on cells; assay: flow cytometry on Ramos cells, antibody titration, anti-huIgG detection
Experimental: Assay protocols ¹B/T co-culture. Mitomicin C-treated human T cells were cultured with B cells in anti-CD3 antibody pre-coated 96-well plates as described in Kuchen et al. (2007) J Immunol 179: 5886, incorporated herein by reference in its entirety. Supernatants were collected for IgA ELISA on day 6. ²B cell IgA production. Negatively selected human peripheral blood B cells were cultured in vitro with IL-21 and CD40L. On day 6, supernatants were collected for human IgG ELISA analysis. ³CD8 IFN-γ production. Purified human CD8 T cells were cultured with IL-21. IFN-γ was measured in the supernatant on day 3. ⁴Whole blood pSTAT3 stimulation. Human or cynomolgus monkey whole blood was pre-incubated with IL-21R mAbs titrations at 37° C. for 1 hr and stimulated with IL-21. Cells were fixed, permeabilized and stained for pSTAT3 and cell surface markers. ⁵Cell based KD measurement. Ramos cells (Human Burkitt's lymphoma) were incubated with a titration of IL-21R mAbs and bound antibody was detected with anti-huIgG by flow cytometry.

T1 sequence (Q9HBE5 20-232 limits assumed): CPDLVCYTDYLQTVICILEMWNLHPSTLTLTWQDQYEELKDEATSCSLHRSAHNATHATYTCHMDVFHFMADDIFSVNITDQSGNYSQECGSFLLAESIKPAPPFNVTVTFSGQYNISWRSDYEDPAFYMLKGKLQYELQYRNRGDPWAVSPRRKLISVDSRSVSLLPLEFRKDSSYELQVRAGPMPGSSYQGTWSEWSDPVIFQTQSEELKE

Kd [1]: 0.035 nM
Kd [2]: 0.043 nM
Kd [3]: 0.006 nM
cyno pSTAT3 IC-50, B [4]: 4 pM
cyno pSTAT3 IC-50, T [4]: 13 pM
B cell (IgA) IC-50, exp1 [5]: 18 pM
B cell (IgA) IC-50, exp2 [5]: 49 pM
B/T co-culture (IgA) IC-50, exp1 [5]: 16 pM
B/T co-culture (IgA) IC-50, exp2 [5]: 9 pM
B/T co-culture (IgA) IC-50, exp3 [5]: 11 pM
B/T co-culture (IgA) IC-50, exp4 [5]: 17 pM
B/T co-culture (IgA) IC-50, exp5 [5]: 10 pM
CD8 T (IFNγ) IC-50, exp1 [5]: 79 pM
CD8 T (IFNγ) IC-50, exp2 [5]: 27 pM
hu pSTAT3 IC-50, B [5]: 14 pM
hu pSTAT3 IC-50, T [5]: 8 pM
Kd [6]: 0.015 nM
B1: 34H7 (antibody, V domains shown)
VH: EVQLVQSGAELKKPGESLKISCKGSGYRFTSYWIGWVRQMPGKGLEWMGIIYPGDSDTRYSPSFQGQVTISADKSISTAYLQWHSLKVSDTAMYYCASPGYSTRWYHFDYWGQGTLVTVSS
VL: EIVMTQSPATLSVSPGERATLSCRASQSISSSLVWYQQKPGQAPRLLIYGASTRATGIPARFSGSGSGTEFSLTISSLQSEDFAVYYCQQYNNWPLLTFGPGTKVDIKR
notes: Fully human antibody from XenoMouse, subcloned as a full IgG construct; also called anti-IL-21 receptor antibody 34H7; IL-21R mAb 34H7

Kd [1]: 0.078 nM
Kd [2]: 0.166 nM
Kd [3]: 0.026 nM
cyno pSTAT3 IC-50, B [4]: 65 pM
cyno pSTAT3 IC-50, T [4]: 286 pM
B cell (IgA) IC-50, exp1 [5]: 22 pM
B cell (IgA) IC-50, exp2 [5]: 47 pM
B/T co-culture (IgA) IC-50, exp1 [5]: 29 pM
B/T co-culture (IgA) IC-50, exp2 [5]: 8 pM
B/T co-culture (IgA) IC-50, exp3 [5]: 17 pM
B/T co-culture (IgA) IC-50, exp4 [5]: 17 pM
B/T co-culture (IgA) IC-50, exp5 [5]: 14 pM
CD8 T (IFNγ) IC-50, exp1 [5]: 139 pM
CD8 T (IFNγ) IC-50, exp2 [5]: 48 pM
hu pSTAT3 IC-50, B [5]: 137 pM
hu pSTAT3 IC-50, T [5]: 33 pM
Kd [6]: 0.016 nM
B2: 29G8 (antibody, V domains shown)
VH: QVQLVESGGGVVQPGRSLRLSCAASGFTFSSYGMHWVRQAPGKGLEWVAVIWYDGSNKYYVDSVKGRFTISRDNSKNTLYLQMNSLRAEDTAVYYCARDRGYYDSGSYYMDYWGQGSLVTVSS
VL: DIQMTQSPSSVSASVGDRVTITCRASQGISTWLAWYQQKPGKAPKLLIYAASILQRGVPSRFSGSGSGTDFTLTISSLQPEDFTTYYCQQANSFPRTFGQGTKVEIKR
notes: Fully human antibody from XenoMouse, subcloned as a full IgG construct; also called anti-IL-21 receptor antibody 29G8; IL-21R mAb 29G8

Kd [1]: 0.016 nM
Kd [2]: 0.078 nM
Kd [3]: 0.015 nM
cyno pSTAT3 IC-50, B [4]: 9 pM
cyno pSTAT3 IC-50, T [4]: 33 pM
B cell (IgA) IC-50, exp1 [5]: 58 pM
B cell (IgA) IC-50, exp2 [5]: 31 pM
B/T co-culture (IgA) IC-50, exp1 [5]: 44 pM
B/T co-culture (IgA) IC-50, exp2 [5]: 31 pM
B/T co-culture (IgA) IC-50, exp3 [5]: 24 pM
B/T co-culture (IgA) IC-50, exp4 [5]: 24 pM
B/T co-culture (IgA) IC-50, exp5 [5]: 19 pM
CD8 T (IFNγ) IC-50, exp1 [5]: 203 pM
CD8 T (IFNγ) IC-50, exp2 [5]: 35 pM
hu pSTAT3 IC-50, B [5]: 36 pM
hu pSTAT3 IC-50, T [5]: 10 pM
Kd [6]: 0.033 nM
B3: 30G3 (antibody, V domains shown)
VH: QVQLQESGPGLVKPSETLSLTCTVSGGSISSYYWSWIRQPAGKGLEWIGRIYTSGSTYFNPSLKSRVTMSVDTSKNQFSLKLSSVTAADTAVYYCARGRELLDYWGQGTLVTVSS
VL: EVVLTQSPGTLSLSPGERATLSCRASQSFSSSYLAWYQQKPGQAPRLLIFGASSRATGIPDRFSGSGSGTDFTLTINRLEPEDFALYYCQQYGRSPLTFGGGTKVEIKR
notes: Fully human antibody from XenoMouse; also called anti-IL-21 receptor antibody 30G3; IL-21R mAb 30G3
